Measured values as given in the nanobody polyreactivity screen of Harvey et al. (2022).

experiment: yeast display, Sf9 membrane polyspecificity reagent, FACS + sequencing; frameworks hold sequencing errors
Outline: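 Sorting gates, low and high (top ~1%), were placed on anti-HA fluorescence to track expression and on streptavidin fluorescence to track reagent binding. A clone's polyreactivity label is taken from the gate it came out of. The reagent was 10% biotinylated, detergent-solubilized Sf9 membrane, applied for 1 hour at 4 °C to galactose-induced yeast display cells.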

Sequence | polyreactivity (PSR sort gate)
QVQLVESGGGLVQAGGSLRLSCAASGFSFSRNTMGWYRQAPGKDRELVATIDRGGRTNYADSVKGRFTISRDNAKNTVYLQMNSLKPEDTAVFYCNAYWRRFPQYDYWGLGTQVTVSS | high polyreactivity
QVQLVESGGGLVQAGGSLRLSCAASGFTAYGYAMGWYRQAPGQERELVAAISRSGGSTYYADSVKGRFTISRDNAKNTVYLQMYSLKPDDTAVYYCAVAVGREYVYRYYYWGQGTQVTVSS | high polyreactivity
QVQLVESGGGLVQAGGSLRLSCAASGFTCLFYDMGWYRQAPGKERELVASITWSGTSTYADSVKGRFTISRDNAINTVYLQMNSLKPEDTAVYYCNAEPHGVKVSYDYWGQGTQVTVSS | low polyreactivity
QVQLVESGGGLVQAGGSLRLSCAASGFTFAAYDKGWSRQAPGKELELVAAITKSGASTYYADSVKGRFTISRDIAKNTFYLQMNSLKPEDTAVYYCAAKNTLYSYYYWGQGTQVTVSS | high polyreactivity
QVQLVESGGGLVQAGGSLRLSCAASGFTFADNAMGWYRQATGKERELVAAISWNGGRTFYADSVKGRFTISRDNAKNTVYLQMNSLKPEDSAVYYCNAVFIVRKYTGWSTGEGYWGQGTQVTVSS | high polyreactivity
QVQLVESGGGLVQAGGSLRLSCAASGFTFAGNAMGWYRKAPGKERELVAGISRRGGNTYYADSVKGRFTISRDIAKNTVYLQMNSLKPEDTAVYYCARYSSSYWGQGTQVTVSS | high polyreactivity
QVQLVESGGGLVQAGGSLRLSCAASGFTFAGYAMGWYRQAPGKERELVAVITSSDSTYYADSVKGLFTISRDNAKNTDYLQMNSLKPEDTAVYYSAVRSYVNWWSIVKYDYWGQGTQVTVSS | low polyreactivity
QVQLVESGGGLVQAGGSLRLSCAASGFTFAHYAMGWYRPAPGKERELVAAISGSGSSTYYADSVKGRFTISRDYAKNSVYLKMNSLKPEDTAVYYCNVRWYFLYYYWGQGTQVTVSS | low polyreactivity
QVQLVESGGGLVQAGGSLRLSCAASGFTFAKNAMGWYRQAPGKERELVADITYSGGSTYADSVKGRFTISRDNAKNTVYLQMNSLKPEETAVYYCAADARRRSGYDYWGQGTQVSVSS | low polyreactivity
QVQLVESGGGLVQAGGSLRLSCAASGFTFAKYAMGWYRQAPGKERELVAAIRSRGDTTYYADSVKGRFTISRDNAKNTVYFQLNSLKPEDTAVYYCSARSYFLVDGSRYDYCGQGTQVTVSS | high polyreactivity
QVQLVESGGGLVQAGGSLRLSCAASGFTFAPYAMGWYRQAPGKERELVATIRSSGGRTYYADSVKGRFTISRDNAKNTVYLQMNSLKPEDTAVYYCAATGVYTKNPRGMDYWGQGTKVTVSS | high polyreactivity
QVQLVESGGGLVQAGGSLRLSCAASGFTFARNGMGWYRQAPGKEREFVAAITRSGGRTYYADSVKGRFTISRDNAKNTVYLQMNSLKPEDTAVYYCAAGYRGIGMNYWGQGTQVTVSS | high polyreactivity
QVQLVESGGGLVQAGGSLRLSCAASGFTFARNVMGWYRQAPGKERELVAAITTSGGSTYYADSVKGRFTISRDNAKNTVYLQMKSLKPEDTAVYYCARRVYGYYIPYNYWGQGTQVTVSS | high polyreactivity
QVQLVESGGGLVQAGGSLRLSCAASGFTFARYAMGWYRQAPGKERELVAAIIWSGGRTYYADSVKGRFTISRDTAKNTVYLQMNSLKPEDTAVYYCNAWGLFYYSSGYDYWGQGTQVTVSS | high polyreactivity
QVQLVESGGGLVQAGGSLRLSCAASGFTFAVYAMGWYRQAPGKERELVAAITTSGTRTYYADSVKGRFTISRDNAKNTVYLQMNSLKPEDTAVYYCAAVGFRQWPEFDYWGQGTQVTVSS | low polyreactivity
QVQLVESGGGLVQAGGSLRLSCAASGFTFAVYDMGWYRQAPGKERELVASITGDSTNYADSVKGRFTISRDNAKNTVYLQMNSLKPEDTAVYYCAAEYVPYYEYESWGQGTQVTVSS | low polyreactivity
